These results are taken from the supplement of paper PMC10065799, “High-throughput profiling of sequence recognition by tyrosine kinases and SH2 domains using bacterial peptide display” (eLife, 2023).

In one data set the target is Jak2 (UniProt O60674). Nature of the data set: phosphorylation enrichment, bacterial display (enrichment ratio); higher = better substrate or ligand; peptides without Tyr show the background.
The next data set addresses Fyn (UniProt P06241). Described as above.
The next data set relates to c-Src. Described as above.
The target of a further data set is MERTK (UniProt Q12866). The data set is described as above.
For a further data set, the target named is Fes (UniProt P07332). The data set is described as above.
A further data set concerns the target EPHB1 (UniProt P54762). Described as above.
Another data set deals with Fer (mouse). The description is as above.
In another data set the target is FGFR1 (UniProt P11362). Described as above.
A further data set has as its target FGFR3 (UniProt P22607). Described as above.
Another data set deals with c-Abl (mouse). The description is as above.
A further data set relates to AncSZ. The description is as above.
A further data set deals with Hck (UniProt P08631). The description is as above.
A further data set concerns the target EPHB2 (UniProt P29323). The description is as above.
The next data set concerns the target Grb2 SH2 (UniProt P62993). Nature of the data set: SH2 binding enrichment of the phosphorylated peptide, bacterial display (enrichment ratio); higher = better substrate or ligand; peptides without Tyr show the background.
For the next data set, the target named is SHP2-C SH2. Described as above.
The next data set has as its target c-Src SH2. The description is as above.
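Throughout, for SH2 binding enrichment of the phosphorylated peptide, bacterial display: peptide library displayed on the E. coli surface as eCPX fusions, selected cells deep-sequenced, score is each peptide's frequency after selection divided by its frequency in the input.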
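Throughout, for phosphorylation enrichment, bacterial display: 11-residue human phosphosite peptides and single-mutation variants displayed on the E. coli surface, counted by deep sequencing, each peptide's frequency after selection divided by its frequency in the unselected input library; frequency after pTyr selection over input frequency; kinase dosed for 20-30% of maximal phosphorylation in three min.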

FGFR1, sequence (P11362 whole entry, looked up): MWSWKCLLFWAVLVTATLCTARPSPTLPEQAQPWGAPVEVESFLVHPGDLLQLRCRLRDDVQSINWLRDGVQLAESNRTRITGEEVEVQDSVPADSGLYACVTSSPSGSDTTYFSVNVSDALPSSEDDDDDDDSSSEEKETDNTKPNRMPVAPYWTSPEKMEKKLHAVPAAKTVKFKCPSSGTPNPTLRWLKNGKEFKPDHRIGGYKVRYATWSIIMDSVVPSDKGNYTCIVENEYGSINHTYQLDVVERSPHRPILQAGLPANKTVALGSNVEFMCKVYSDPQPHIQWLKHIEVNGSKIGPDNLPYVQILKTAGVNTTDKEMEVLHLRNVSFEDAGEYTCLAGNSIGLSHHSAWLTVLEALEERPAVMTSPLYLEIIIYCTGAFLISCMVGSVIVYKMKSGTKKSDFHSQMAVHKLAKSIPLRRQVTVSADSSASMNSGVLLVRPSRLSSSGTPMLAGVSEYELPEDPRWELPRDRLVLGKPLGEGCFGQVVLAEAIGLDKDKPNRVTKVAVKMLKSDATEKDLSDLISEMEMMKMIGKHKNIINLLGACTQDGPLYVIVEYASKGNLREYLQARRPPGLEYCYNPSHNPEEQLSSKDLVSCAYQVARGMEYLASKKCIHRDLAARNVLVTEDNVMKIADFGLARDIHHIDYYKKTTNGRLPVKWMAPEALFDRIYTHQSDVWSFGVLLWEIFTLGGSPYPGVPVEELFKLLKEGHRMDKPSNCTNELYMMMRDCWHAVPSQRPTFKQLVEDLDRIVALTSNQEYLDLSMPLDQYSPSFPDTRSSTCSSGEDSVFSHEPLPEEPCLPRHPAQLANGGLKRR
FGFR3, sequence (P22607 whole entry, looked up): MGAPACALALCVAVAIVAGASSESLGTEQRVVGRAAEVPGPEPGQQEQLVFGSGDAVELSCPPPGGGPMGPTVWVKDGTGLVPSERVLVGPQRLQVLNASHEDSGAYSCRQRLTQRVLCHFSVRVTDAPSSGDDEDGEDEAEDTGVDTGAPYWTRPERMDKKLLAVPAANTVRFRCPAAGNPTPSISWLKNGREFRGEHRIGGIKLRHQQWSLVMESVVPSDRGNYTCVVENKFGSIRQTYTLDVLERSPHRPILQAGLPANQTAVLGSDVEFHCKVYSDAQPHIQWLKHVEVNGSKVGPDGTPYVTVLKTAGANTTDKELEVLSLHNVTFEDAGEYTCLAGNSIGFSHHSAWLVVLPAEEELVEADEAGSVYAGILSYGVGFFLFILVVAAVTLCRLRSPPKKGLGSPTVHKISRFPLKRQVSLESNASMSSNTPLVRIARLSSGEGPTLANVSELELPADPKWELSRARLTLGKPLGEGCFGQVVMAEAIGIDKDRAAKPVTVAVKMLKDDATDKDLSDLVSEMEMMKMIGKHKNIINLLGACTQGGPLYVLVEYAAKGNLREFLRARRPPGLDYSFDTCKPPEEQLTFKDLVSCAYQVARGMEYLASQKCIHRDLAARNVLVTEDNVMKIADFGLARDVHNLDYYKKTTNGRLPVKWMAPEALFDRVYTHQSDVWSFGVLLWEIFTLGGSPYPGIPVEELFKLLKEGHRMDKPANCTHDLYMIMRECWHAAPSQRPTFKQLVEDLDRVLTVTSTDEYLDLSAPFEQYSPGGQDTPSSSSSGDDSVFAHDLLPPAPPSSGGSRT
EPHB2, sequence (P29323 whole entry, looked up): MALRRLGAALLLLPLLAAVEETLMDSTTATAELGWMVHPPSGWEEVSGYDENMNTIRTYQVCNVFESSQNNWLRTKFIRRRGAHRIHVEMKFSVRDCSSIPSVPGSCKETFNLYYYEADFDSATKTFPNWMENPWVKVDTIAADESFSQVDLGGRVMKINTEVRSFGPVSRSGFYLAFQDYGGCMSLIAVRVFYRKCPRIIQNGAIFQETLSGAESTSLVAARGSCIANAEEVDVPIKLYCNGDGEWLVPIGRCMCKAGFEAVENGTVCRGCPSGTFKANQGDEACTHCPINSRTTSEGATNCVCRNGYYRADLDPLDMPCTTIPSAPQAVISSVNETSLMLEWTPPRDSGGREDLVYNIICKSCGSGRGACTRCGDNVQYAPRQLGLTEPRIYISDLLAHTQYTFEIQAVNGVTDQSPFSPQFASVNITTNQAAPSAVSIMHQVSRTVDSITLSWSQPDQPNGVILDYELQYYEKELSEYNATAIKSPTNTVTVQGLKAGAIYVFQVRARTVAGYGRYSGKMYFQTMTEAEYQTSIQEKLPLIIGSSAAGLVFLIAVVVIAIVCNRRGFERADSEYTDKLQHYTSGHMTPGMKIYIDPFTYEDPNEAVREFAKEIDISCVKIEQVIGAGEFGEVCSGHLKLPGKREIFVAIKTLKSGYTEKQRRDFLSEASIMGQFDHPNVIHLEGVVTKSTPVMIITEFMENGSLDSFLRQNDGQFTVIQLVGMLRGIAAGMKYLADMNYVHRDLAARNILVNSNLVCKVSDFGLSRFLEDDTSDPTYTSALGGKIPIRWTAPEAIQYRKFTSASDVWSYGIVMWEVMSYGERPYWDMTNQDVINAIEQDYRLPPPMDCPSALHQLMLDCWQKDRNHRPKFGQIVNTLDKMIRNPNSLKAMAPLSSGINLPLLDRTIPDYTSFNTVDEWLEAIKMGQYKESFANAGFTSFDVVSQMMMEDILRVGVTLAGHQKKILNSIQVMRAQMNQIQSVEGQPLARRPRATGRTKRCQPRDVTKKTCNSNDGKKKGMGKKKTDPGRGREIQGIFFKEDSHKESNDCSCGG
Grb2 SH2, sequence (P62993 whole entry, looked up): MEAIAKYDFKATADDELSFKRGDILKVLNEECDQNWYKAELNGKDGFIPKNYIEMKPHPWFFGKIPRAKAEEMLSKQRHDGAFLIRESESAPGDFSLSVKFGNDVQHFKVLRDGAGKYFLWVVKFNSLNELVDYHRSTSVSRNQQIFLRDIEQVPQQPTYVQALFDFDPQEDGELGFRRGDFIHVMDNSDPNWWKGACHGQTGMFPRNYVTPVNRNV
MERTK, sequence (Q12866 whole entry, looked up): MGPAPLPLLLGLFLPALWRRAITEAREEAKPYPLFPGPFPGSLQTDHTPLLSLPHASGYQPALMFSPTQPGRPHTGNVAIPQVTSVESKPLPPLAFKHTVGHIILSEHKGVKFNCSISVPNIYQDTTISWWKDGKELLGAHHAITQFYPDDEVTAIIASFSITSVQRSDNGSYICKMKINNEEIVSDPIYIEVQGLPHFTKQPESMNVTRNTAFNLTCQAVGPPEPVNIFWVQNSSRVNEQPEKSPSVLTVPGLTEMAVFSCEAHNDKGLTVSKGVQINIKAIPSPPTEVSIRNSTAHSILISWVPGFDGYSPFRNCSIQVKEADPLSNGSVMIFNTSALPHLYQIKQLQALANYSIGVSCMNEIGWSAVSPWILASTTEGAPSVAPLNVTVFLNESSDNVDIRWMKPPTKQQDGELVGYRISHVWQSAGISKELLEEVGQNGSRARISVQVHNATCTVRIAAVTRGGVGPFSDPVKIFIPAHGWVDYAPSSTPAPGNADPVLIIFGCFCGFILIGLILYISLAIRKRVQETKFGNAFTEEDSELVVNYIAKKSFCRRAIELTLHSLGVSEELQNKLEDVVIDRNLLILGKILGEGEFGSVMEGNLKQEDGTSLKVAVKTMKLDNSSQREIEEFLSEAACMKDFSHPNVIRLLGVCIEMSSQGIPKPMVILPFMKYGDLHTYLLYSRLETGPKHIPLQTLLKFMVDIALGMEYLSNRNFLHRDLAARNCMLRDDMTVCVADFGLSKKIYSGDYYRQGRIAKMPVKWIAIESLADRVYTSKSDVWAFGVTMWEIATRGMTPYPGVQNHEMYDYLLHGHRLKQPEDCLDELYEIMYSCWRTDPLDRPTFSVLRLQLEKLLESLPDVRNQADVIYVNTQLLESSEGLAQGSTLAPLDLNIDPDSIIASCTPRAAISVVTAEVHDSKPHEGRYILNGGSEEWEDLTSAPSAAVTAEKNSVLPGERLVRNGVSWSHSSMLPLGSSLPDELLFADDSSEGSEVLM
Hck, sequence (P08631 whole entry, looked up): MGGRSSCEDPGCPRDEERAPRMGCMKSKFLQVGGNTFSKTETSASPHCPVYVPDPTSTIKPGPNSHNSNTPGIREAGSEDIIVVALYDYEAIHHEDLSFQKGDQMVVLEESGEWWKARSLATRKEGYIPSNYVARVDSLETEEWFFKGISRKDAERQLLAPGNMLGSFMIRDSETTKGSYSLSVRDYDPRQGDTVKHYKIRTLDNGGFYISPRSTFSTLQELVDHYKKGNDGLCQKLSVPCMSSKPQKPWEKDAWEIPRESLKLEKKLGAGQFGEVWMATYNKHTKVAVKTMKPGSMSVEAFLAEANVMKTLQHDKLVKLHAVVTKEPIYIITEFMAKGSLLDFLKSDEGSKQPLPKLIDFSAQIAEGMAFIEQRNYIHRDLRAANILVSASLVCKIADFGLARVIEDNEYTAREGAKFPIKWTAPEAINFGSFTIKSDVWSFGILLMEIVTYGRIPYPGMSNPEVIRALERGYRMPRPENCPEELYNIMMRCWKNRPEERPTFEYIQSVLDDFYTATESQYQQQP
Fyn, sequence (P06241 whole entry, looked up): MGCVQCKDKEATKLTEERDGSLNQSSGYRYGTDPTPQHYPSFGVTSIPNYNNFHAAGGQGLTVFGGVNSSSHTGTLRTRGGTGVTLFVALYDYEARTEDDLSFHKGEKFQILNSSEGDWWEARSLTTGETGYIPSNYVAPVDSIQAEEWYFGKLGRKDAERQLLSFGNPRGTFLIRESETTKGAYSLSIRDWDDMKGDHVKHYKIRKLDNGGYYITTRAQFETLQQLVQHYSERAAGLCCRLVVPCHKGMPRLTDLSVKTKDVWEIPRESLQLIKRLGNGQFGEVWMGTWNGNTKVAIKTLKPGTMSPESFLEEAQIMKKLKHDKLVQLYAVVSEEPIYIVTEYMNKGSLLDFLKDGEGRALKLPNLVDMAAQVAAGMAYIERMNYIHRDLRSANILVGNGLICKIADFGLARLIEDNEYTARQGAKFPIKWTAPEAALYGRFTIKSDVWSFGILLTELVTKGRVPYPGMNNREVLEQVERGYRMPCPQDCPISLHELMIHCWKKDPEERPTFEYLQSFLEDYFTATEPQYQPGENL

RPYVYYYSYLL [PTEN_Y177_R173P]: the phosphorylation enrichment in the data set with Jak2 amounted to 2.84; with Fyn, 1.42; with c-Src, 2.3; with MERTK it was 5.81; in the data set with Fes it was 1.6; with EPHB1, 2.64. Also, the phosphorylation enrichment was 0.931 with Fer (mouse); 7.24 in the data set with FGFR1; 4.57 in the data set with FGFR3; 1.4 with c-Abl (mouse); 1.51 with AncSZ; 2.09 with Hck. Further, the phosphorylation enrichment with EPHB2 amounted to 1.39. Moreover, the SH2 binding enrichment was determined as 0.841 in the data set with Grb2 SH2, 1.12 in the data set with SHP2-C SH2 and 0.539 with c-Src SH2.
Turning to KLLRLYAVVTR [LYN_Y306_V303L], the phosphorylation enrichment came out at 1.05 in the data set with Jak2; 0.451 in the data set with Fyn; 0.544 in the data set on c-Src; 0.581 with MERTK; 1.04 in the data set with Fes; 0.982 with EPHB1. Also, the phosphorylation enrichment worked out at 0.51 in the data set with Fer (mouse); 0.409 with FGFR1; 0.644 in the data set with FGFR3; 0.918 in the data set with c-Abl (mouse); 0.997 with AncSZ; 0.468 with Hck. The phosphorylation enrichment with EPHB2 turned out to be 0.594. Moreover, the figures for the SH2 binding enrichment in the data set with Grb2 SH2, with SHP2-C SH2 and in the data set with c-Src SH2 were 1.12, 2.42 and 1.21, respectively.
As for ENAGFYFRVSA, the phosphorylation enrichment with Jak2 came to 1.22; with Fyn it was 0.45; with c-Src, 0.324; with MERTK, 0.44; with Fes, 1.58; in the data set with EPHB1, 0.794. For the same sequence, the phosphorylation enrichment was determined as 0.724 in the data set on Fer (mouse); 0.841 with FGFR1; 1.1 with FGFR3; 0.831 in the data set on c-Abl (mouse); 1.45 with AncSZ; 0.62 with Hck. The phosphorylation enrichment with EPHB2 is 0.704. Besides, the SH2 binding enrichment with Grb2 SH2 turned out to be 0.646; with SHP2-C SH2, 0.738; in the data set with c-Src SH2, 0.359.
Consider EVDGLYREAPI [MYL12B_Y143_E141G], for which the phosphorylation enrichment is 0.83 in the data set with Jak2; 0.488 in the data set with Fyn; 0.482 in the data set on c-Src; 0.443 in the data set with MERTK; 0.976 in the data set with Fes; 0.503 with EPHB1. Further, the phosphorylation enrichment in the data set on Fer (mouse) stood at 0.504; in the data set with FGFR1, 0.629; in the data set with FGFR3, 0.718; with c-Abl (mouse) it was 0.662; with AncSZ, 0.879; with Hck, 0.536. Further, in the data set with EPHB2, the phosphorylation enrichment came to 0.527. The results for the SH2 binding enrichment with Grb2 SH2, with SHP2-C SH2 and with c-Src SH2 were 0.753, 1.07 and 0.528, respectively.
With MARDIYRASYY [ALK_Y1278], the phosphorylation enrichment worked out at 0.702 in the data set with Jak2; 0.688 with Fyn; 1.58 with c-Src; 0.673 in the data set with MERTK; 0.683 with Fes; 0.466 in the data set with EPHB1. Also, the phosphorylation enrichment is 0.408 in the data set with Fer (mouse); 0.624 with FGFR1; 0.63 with FGFR3; 1.77 in the data set with c-Abl (mouse); 0.685 with AncSZ; 1.01 with Hck. The phosphorylation enrichment with EPHB2 is 0.439. Further, the SH2 binding enrichment with Grb2 SH2 came out at 0.877; in the data set with SHP2-C SH2, 0.708; with c-Src SH2, 0.839.
With IFGVSYGEYRY [CFTR_Y512_D513G], the phosphorylation enrichment with Jak2 worked out at 0.858; with Fyn, 7.22; with c-Src it was 5.62; with MERTK it was 0.537; with Fes it was 1.33; with EPHB1, 0.852. For the same sequence, the phosphorylation enrichment worked out at 0.736 with Fer (mouse); 0.603 with FGFR1; 0.819 with FGFR3; 0.632 in the data set with c-Abl (mouse); 0.9 in the data set on AncSZ; 4.11 in the data set with Hck. The phosphorylation enrichment with EPHB2 amounted to 0.691. Moreover, the SH2 binding enrichment in the data set with Grb2 SH2 was determined as 1.05; in the data set with SHP2-C SH2, 1.1; with c-Src SH2 it was 0.933.
Consider SQINLYQDVML [ZNF806_Y33_A28S], for which the phosphorylation enrichment in the data set with Jak2 turned out to be 0.847; with Fyn, 0.965; in the data set on c-Src, 0.934; with MERTK, 1.81; in the data set with Fes, 2.48; in the data set with EPHB1, 13.2. Also, the phosphorylation enrichment worked out at 13.9 in the data set with Fer (mouse); 1.01 in the data set with FGFR1; 1.06 in the data set with FGFR3; 0.752 in the data set on c-Abl (mouse); 1.02 with AncSZ; 1.6 with Hck. For the same sequence, the phosphorylation enrichment with EPHB2 was 5.9. Besides, the SH2 binding enrichment with Grb2 SH2 was 0.846; with SHP2-C SH2, 0.771; with c-Src SH2 it was 0.608.
Take LAVVDYIRRQK [ATM_Y1915_M1916I]: the phosphorylation enrichment with Jak2 came out at 0.855; with Fyn, 0.649; in the data set with c-Src, 1.21; with MERTK it was 0.863; with Fes it was 1.24; with EPHB1, 0.918. Also, the phosphorylation enrichment came to 0.839 with Fer (mouse); 0.791 with FGFR1; 0.92 in the data set with FGFR3; 1.37 in the data set with c-Abl (mouse); 1.06 in the data set on AncSZ; 0.749 in the data set with Hck. Further, the phosphorylation enrichment with EPHB2 is 1.42. Also, the SH2 binding enrichment came out at 0.441 with Grb2 SH2, 0.461 with SHP2-C SH2 and 0.338 with c-Src SH2.
